In article PMC12861225:

Experiment: pNPP activity; mutant:WT plasmid 1:1 (heterodimers not confirmed)
Conditions: glycan lost; control: wild type plasmid only

Protein	enzymatic_activity, percent_of_wt
Tissue-nonspecific alkaline phosphatase (TNALP): heterodimeric N140Q (protein) parent chain: MISPFLVLAIGTCLTNSLVPEKEKDPKYWRDQAQETLKYALELQKLNTNVAKNVIMFLGDGMGVSTVTAARILKGQLHHNPGEETRLEMDKFPFVALSKTYNTNAQVPDSAGTATAYLCGVKANEGTVGVSAATERSRCNTTQGNEVTSILRWAKDAGKSVGIVTTTRVNHATPSAAYAHSADRDWYSDNEMPPEALSQGCKDIAYQLMHNIRDIDVIMGGGRKYMYPKNKTDVEYESDEKARGTRLDGLDLVDTWKSFKPRYKHSHFIWNRTELLTLDPHNVDYLLGLFEPGDMQYELNRNNVTDPSLSEMVVVAIQILRKNPKGFFLLVEGGRIDHGHHEGKAKQALHEAVEMDRAIGQAGSLTSSEDTLTVVTADHSHVFTFGGYTPRGNSIFGLAPMLSDTDKKPFTAILYGNGPGYKVVGGERENVSMVDYAHNNYQAQSAVPLRHETHGGEDVAVFSKGPMAHLLHGVHEQNYVPHVMAYAACIGANLGHCAPASSAGSLAAGPLLLALALYPLSVLF	decreases
Tissue-nonspecific alkaline phosphatase (TNALP): heterodimeric N140Q/N430D (protein) parent chain: MISPFLVLAIGTCLTNSLVPEKEKDPKYWRDQAQETLKYALELQKLNTNVAKNVIMFLGDGMGVSTVTAARILKGQLHHNPGEETRLEMDKFPFVALSKTYNTNAQVPDSAGTATAYLCGVKANEGTVGVSAATERSRCNTTQGNEVTSILRWAKDAGKSVGIVTTTRVNHATPSAAYAHSADRDWYSDNEMPPEALSQGCKDIAYQLMHNIRDIDVIMGGGRKYMYPKNKTDVEYESDEKARGTRLDGLDLVDTWKSFKPRYKHSHFIWNRTELLTLDPHNVDYLLGLFEPGDMQYELNRNNVTDPSLSEMVVVAIQILRKNPKGFFLLVEGGRIDHGHHEGKAKQALHEAVEMDRAIGQAGSLTSSEDTLTVVTADHSHVFTFGGYTPRGNSIFGLAPMLSDTDKKPFTAILYGNGPGYKVVGGERENVSMVDYAHNNYQAQSAVPLRHETHGGEDVAVFSKGPMAHLLHGVHEQNYVPHVMAYAACIGANLGHCAPASSAGSLAAGPLLLALALYPLSVLF	decreases
Tissue-nonspecific alkaline phosphatase (TNALP): heterodimeric N140Q/N303Q (protein) parent chain: MISPFLVLAIGTCLTNSLVPEKEKDPKYWRDQAQETLKYALELQKLNTNVAKNVIMFLGDGMGVSTVTAARILKGQLHHNPGEETRLEMDKFPFVALSKTYNTNAQVPDSAGTATAYLCGVKANEGTVGVSAATERSRCNTTQGNEVTSILRWAKDAGKSVGIVTTTRVNHATPSAAYAHSADRDWYSDNEMPPEALSQGCKDIAYQLMHNIRDIDVIMGGGRKYMYPKNKTDVEYESDEKARGTRLDGLDLVDTWKSFKPRYKHSHFIWNRTELLTLDPHNVDYLLGLFEPGDMQYELNRNNVTDPSLSEMVVVAIQILRKNPKGFFLLVEGGRIDHGHHEGKAKQALHEAVEMDRAIGQAGSLTSSEDTLTVVTADHSHVFTFGGYTPRGNSIFGLAPMLSDTDKKPFTAILYGNGPGYKVVGGERENVSMVDYAHNNYQAQSAVPLRHETHGGEDVAVFSKGPMAHLLHGVHEQNYVPHVMAYAACIGANLGHCAPASSAGSLAAGPLLLALALYPLSVLF	decreases
Tissue-nonspecific alkaline phosphatase (TNALP): heterodimeric N140Q/N230Q (protein) parent chain: MISPFLVLAIGTCLTNSLVPEKEKDPKYWRDQAQETLKYALELQKLNTNVAKNVIMFLGDGMGVSTVTAARILKGQLHHNPGEETRLEMDKFPFVALSKTYNTNAQVPDSAGTATAYLCGVKANEGTVGVSAATERSRCNTTQGNEVTSILRWAKDAGKSVGIVTTTRVNHATPSAAYAHSADRDWYSDNEMPPEALSQGCKDIAYQLMHNIRDIDVIMGGGRKYMYPKNKTDVEYESDEKARGTRLDGLDLVDTWKSFKPRYKHSHFIWNRTELLTLDPHNVDYLLGLFEPGDMQYELNRNNVTDPSLSEMVVVAIQILRKNPKGFFLLVEGGRIDHGHHEGKAKQALHEAVEMDRAIGQAGSLTSSEDTLTVVTADHSHVFTFGGYTPRGNSIFGLAPMLSDTDKKPFTAILYGNGPGYKVVGGERENVSMVDYAHNNYQAQSAVPLRHETHGGEDVAVFSKGPMAHLLHGVHEQNYVPHVMAYAACIGANLGHCAPASSAGSLAAGPLLLALALYPLSVLF	decreases
Tissue-nonspecific alkaline phosphatase (TNALP): heterodimeric N303Q (protein) parent chain: MISPFLVLAIGTCLTNSLVPEKEKDPKYWRDQAQETLKYALELQKLNTNVAKNVIMFLGDGMGVSTVTAARILKGQLHHNPGEETRLEMDKFPFVALSKTYNTNAQVPDSAGTATAYLCGVKANEGTVGVSAATERSRCNTTQGNEVTSILRWAKDAGKSVGIVTTTRVNHATPSAAYAHSADRDWYSDNEMPPEALSQGCKDIAYQLMHNIRDIDVIMGGGRKYMYPKNKTDVEYESDEKARGTRLDGLDLVDTWKSFKPRYKHSHFIWNRTELLTLDPHNVDYLLGLFEPGDMQYELNRNNVTDPSLSEMVVVAIQILRKNPKGFFLLVEGGRIDHGHHEGKAKQALHEAVEMDRAIGQAGSLTSSEDTLTVVTADHSHVFTFGGYTPRGNSIFGLAPMLSDTDKKPFTAILYGNGPGYKVVGGERENVSMVDYAHNNYQAQSAVPLRHETHGGEDVAVFSKGPMAHLLHGVHEQNYVPHVMAYAACIGANLGHCAPASSAGSLAAGPLLLALALYPLSVLF	decreases
Tissue-nonspecific alkaline phosphatase (TNALP): heterodimeric N230Q (protein) parent chain: MISPFLVLAIGTCLTNSLVPEKEKDPKYWRDQAQETLKYALELQKLNTNVAKNVIMFLGDGMGVSTVTAARILKGQLHHNPGEETRLEMDKFPFVALSKTYNTNAQVPDSAGTATAYLCGVKANEGTVGVSAATERSRCNTTQGNEVTSILRWAKDAGKSVGIVTTTRVNHATPSAAYAHSADRDWYSDNEMPPEALSQGCKDIAYQLMHNIRDIDVIMGGGRKYMYPKNKTDVEYESDEKARGTRLDGLDLVDTWKSFKPRYKHSHFIWNRTELLTLDPHNVDYLLGLFEPGDMQYELNRNNVTDPSLSEMVVVAIQILRKNPKGFFLLVEGGRIDHGHHEGKAKQALHEAVEMDRAIGQAGSLTSSEDTLTVVTADHSHVFTFGGYTPRGNSIFGLAPMLSDTDKKPFTAILYGNGPGYKVVGGERENVSMVDYAHNNYQAQSAVPLRHETHGGEDVAVFSKGPMAHLLHGVHEQNYVPHVMAYAACIGANLGHCAPASSAGSLAAGPLLLALALYPLSVLF	decreases
Tissue-nonspecific alkaline phosphatase (TNALP): heterodimeric N230Q/N303Q (protein) parent chain: MISPFLVLAIGTCLTNSLVPEKEKDPKYWRDQAQETLKYALELQKLNTNVAKNVIMFLGDGMGVSTVTAARILKGQLHHNPGEETRLEMDKFPFVALSKTYNTNAQVPDSAGTATAYLCGVKANEGTVGVSAATERSRCNTTQGNEVTSILRWAKDAGKSVGIVTTTRVNHATPSAAYAHSADRDWYSDNEMPPEALSQGCKDIAYQLMHNIRDIDVIMGGGRKYMYPKNKTDVEYESDEKARGTRLDGLDLVDTWKSFKPRYKHSHFIWNRTELLTLDPHNVDYLLGLFEPGDMQYELNRNNVTDPSLSEMVVVAIQILRKNPKGFFLLVEGGRIDHGHHEGKAKQALHEAVEMDRAIGQAGSLTSSEDTLTVVTADHSHVFTFGGYTPRGNSIFGLAPMLSDTDKKPFTAILYGNGPGYKVVGGERENVSMVDYAHNNYQAQSAVPLRHETHGGEDVAVFSKGPMAHLLHGVHEQNYVPHVMAYAACIGANLGHCAPASSAGSLAAGPLLLALALYPLSVLF	decreases
Tissue-nonspecific alkaline phosphatase (TNALP): heterodimeric N140Q/N271Q (protein) parent chain: MISPFLVLAIGTCLTNSLVPEKEKDPKYWRDQAQETLKYALELQKLNTNVAKNVIMFLGDGMGVSTVTAARILKGQLHHNPGEETRLEMDKFPFVALSKTYNTNAQVPDSAGTATAYLCGVKANEGTVGVSAATERSRCNTTQGNEVTSILRWAKDAGKSVGIVTTTRVNHATPSAAYAHSADRDWYSDNEMPPEALSQGCKDIAYQLMHNIRDIDVIMGGGRKYMYPKNKTDVEYESDEKARGTRLDGLDLVDTWKSFKPRYKHSHFIWNRTELLTLDPHNVDYLLGLFEPGDMQYELNRNNVTDPSLSEMVVVAIQILRKNPKGFFLLVEGGRIDHGHHEGKAKQALHEAVEMDRAIGQAGSLTSSEDTLTVVTADHSHVFTFGGYTPRGNSIFGLAPMLSDTDKKPFTAILYGNGPGYKVVGGERENVSMVDYAHNNYQAQSAVPLRHETHGGEDVAVFSKGPMAHLLHGVHEQNYVPHVMAYAACIGANLGHCAPASSAGSLAAGPLLLALALYPLSVLF	decreases
Tissue-nonspecific alkaline phosphatase (TNALP): heterodimeric N430D (protein) parent chain: MISPFLVLAIGTCLTNSLVPEKEKDPKYWRDQAQETLKYALELQKLNTNVAKNVIMFLGDGMGVSTVTAARILKGQLHHNPGEETRLEMDKFPFVALSKTYNTNAQVPDSAGTATAYLCGVKANEGTVGVSAATERSRCNTTQGNEVTSILRWAKDAGKSVGIVTTTRVNHATPSAAYAHSADRDWYSDNEMPPEALSQGCKDIAYQLMHNIRDIDVIMGGGRKYMYPKNKTDVEYESDEKARGTRLDGLDLVDTWKSFKPRYKHSHFIWNRTELLTLDPHNVDYLLGLFEPGDMQYELNRNNVTDPSLSEMVVVAIQILRKNPKGFFLLVEGGRIDHGHHEGKAKQALHEAVEMDRAIGQAGSLTSSEDTLTVVTADHSHVFTFGGYTPRGNSIFGLAPMLSDTDKKPFTAILYGNGPGYKVVGGERENVSMVDYAHNNYQAQSAVPLRHETHGGEDVAVFSKGPMAHLLHGVHEQNYVPHVMAYAACIGANLGHCAPASSAGSLAAGPLLLALALYPLSVLF	decreases
Tissue-nonspecific alkaline phosphatase (TNALP): heterodimeric N230Q/N271Q (protein) parent chain: MISPFLVLAIGTCLTNSLVPEKEKDPKYWRDQAQETLKYALELQKLNTNVAKNVIMFLGDGMGVSTVTAARILKGQLHHNPGEETRLEMDKFPFVALSKTYNTNAQVPDSAGTATAYLCGVKANEGTVGVSAATERSRCNTTQGNEVTSILRWAKDAGKSVGIVTTTRVNHATPSAAYAHSADRDWYSDNEMPPEALSQGCKDIAYQLMHNIRDIDVIMGGGRKYMYPKNKTDVEYESDEKARGTRLDGLDLVDTWKSFKPRYKHSHFIWNRTELLTLDPHNVDYLLGLFEPGDMQYELNRNNVTDPSLSEMVVVAIQILRKNPKGFFLLVEGGRIDHGHHEGKAKQALHEAVEMDRAIGQAGSLTSSEDTLTVVTADHSHVFTFGGYTPRGNSIFGLAPMLSDTDKKPFTAILYGNGPGYKVVGGERENVSMVDYAHNNYQAQSAVPLRHETHGGEDVAVFSKGPMAHLLHGVHEQNYVPHVMAYAACIGANLGHCAPASSAGSLAAGPLLLALALYPLSVLF	decreases
Tissue-nonspecific alkaline phosphatase (TNALP): heterodimeric N271Q (protein) parent chain: MISPFLVLAIGTCLTNSLVPEKEKDPKYWRDQAQETLKYALELQKLNTNVAKNVIMFLGDGMGVSTVTAARILKGQLHHNPGEETRLEMDKFPFVALSKTYNTNAQVPDSAGTATAYLCGVKANEGTVGVSAATERSRCNTTQGNEVTSILRWAKDAGKSVGIVTTTRVNHATPSAAYAHSADRDWYSDNEMPPEALSQGCKDIAYQLMHNIRDIDVIMGGGRKYMYPKNKTDVEYESDEKARGTRLDGLDLVDTWKSFKPRYKHSHFIWNRTELLTLDPHNVDYLLGLFEPGDMQYELNRNNVTDPSLSEMVVVAIQILRKNPKGFFLLVEGGRIDHGHHEGKAKQALHEAVEMDRAIGQAGSLTSSEDTLTVVTADHSHVFTFGGYTPRGNSIFGLAPMLSDTDKKPFTAILYGNGPGYKVVGGERENVSMVDYAHNNYQAQSAVPLRHETHGGEDVAVFSKGPMAHLLHGVHEQNYVPHVMAYAACIGANLGHCAPASSAGSLAAGPLLLALALYPLSVLF	decreases
